Measured values taken from patent US20200024330A1.

Key:
[1] = biological target: HIV-1 APV-17 envelope glycoprotein (Env) on pseudovirus (HIV-1); test: cell-based or functional assay
[2] = biological target: HIV-1 envelope glycoprotein (Env) of isolate MGRM-C-019, on pseudovirus (HIV-1); test: cell-based or functional assay
[3] = biological target: HIV-1 envelope glycoprotein (Env) of isolate MGRM-C-027, on pseudovirus (HIV-1); test: cell-based or functional assay
[4] = biological target: aMLV envelope protein (on pseudovirus, negative control) (aMLV); test: cell-based or functional assay
[5] = biological target: HIV-1 envelope glycoprotein (Env) of isolate MGRM-C-017, on pseudovirus (HIV-1); test: cell-based or functional assay
[6] = biological target: HIV-1 NL43 Env (on pseudovirus) (HIV-1); test: cell-based or functional assay
[7] = biological target: HIV-1 MGRM-D-001 Env (on pseudovirus) (HIV-1); test: cell-based or functional assay
[8] = biological target: HIV-1 JRFL Env (on pseudovirus) (HIV-1); test: cell-based or functional assay
[9] = biological target: HIV-1 MGRM-C-027 Env (on pseudovirus) (HIV-1); test: cell-based or functional assay
[10] = biological target: HIV-1 envelope glycoprotein (Env) of isolate MGRM-C-022, on pseudovirus (HIV-1); test: cell-based or functional assay
[11] = biological target: HIV-1 92UG005 Env (on pseudovirus) (HIV-1); test: cell-based or functional assay
[12] = biological target: HIV-1 Env of isolate MG RM-AG-006 (HIV-1); test: cell-based or functional assay
[13] = biological target: HIV-1 Env of isolate 93MW959 (pseudovirus) (HIV-1 isolate 93MW959, subtype C); test: cell-based or functional assay
[14] = biological target: HIV-1 93IN905 envelope protein (Env) on pseudotyped virus (HIV-1 isolate 93IN905); test: cell-based or functional assay
[15] = biological target: HIV-1 92BR020 envelope protein (Env) on pseudotyped virus (HIV-1 isolate 92BR020); test: cell-based or functional assay
[16] = biological target: WT JR-FL gp120 (HIV-1 (isolate JR-FL)); test: ELISA on coated gp120; EC50 by nonlinear regression
[17] = biological target: JR-FL gp120 ΔV1/ΔV2 (HIV-1 (isolate JR-FL)); test: as above
[18] = biological target: HIV-1 APV13 envelope glycoprotein (Env) (HIV-1); test: cell-based or functional assay
[19] = biological target: HIV-1 Env of isolate VLGCA1 (HIV-1); test: cell-based or functional assay
[20] = biological target: HIV-1 JR-CSF Env K343A (HIV-1 isolate JR-CSF) (UniProt P20871); test: cell-based or functional assay
[21] = biological target: HIV-1 JR-CSF Env N295A (HIV-1 JR-CSF) (UniProt P20871); test: cell-based or functional assay
[22] = biological target: HIV-1 JR-CSF Env T388A (HIV-1 (isolate JR-CSF)) (UniProt P20871); test: cell-based or functional assay
[23] = biological target: HIV-1 Env of isolate MGRM-A-008 (HIV-1); test: cell-based or functional assay
[24] = biological target: HIV-1 JR-CSF Env N339A (HIV-1 isolate JR-CSF) (UniProt P20871); test: cell-based or functional assay
[25] = biological target: HIV-1 APV6 envelope glycoprotein (Env) (HIV-1); test: cell-based or functional assay
[26] = biological target: HIV-1 JR-CSF Env S199A (HIV-1 JR-CSF) (UniProt P20871); test: cell-based or functional assay
[27] = biological target: HIV-1 Env of isolate MGRM-A-005 (HIV-1); test: cell-based or functional assay
[28] = biological target: HIV-1 JR-CSF Env I309A (HIV-1 JR-CSF) (UniProt P20871); test: cell-based or functional assay
[29] = biological target: HIV-1 JR-CSF Env F317A (HIV-1 isolate JR-CSF) (UniProt P20871); test: cell-based or functional assay
[30] = biological target: HIV-1 JR-CSF Env K421A (HIV-1 (isolate JR-CSF)) (UniProt P20871); test: cell-based or functional assay
[31] = biological target: HIV-1 Env of isolate MGRM-A-009 (HIV-1); test: cell-based or functional assay
[32] = biological target: HIV-1 JR-CSF Env S306A (HIV-1 JR-CSF) (UniProt P20871); test: cell-based or functional assay
[33] = biological target: HIV-1 JR-CSF Env N301A (HIV-1 JR-CSF) (UniProt P20871); test: cell-based or functional assay
[34] = biological target: HIV-1 MGRM-C-028 envelope glycoprotein (Env) (HIV-1); test: cell-based or functional assay
[35] = biological target: HIV-1 MGRM-D-001 envelope glycoprotein (Env) on pseudovirus (HIV-1); test: cell-based or functional assay
[36] = biological target: HIV-1 94UG103 Env (pseudovirus) (HIV-1); test: cell-based or functional assay
[37] = biological target: HIV-1 JRFL Env (pseudovirus) (HIV-1); test: cell-based or functional assay
[38] = biological target: HIV-1 MGRM-C-026 Env (pseudovirus) (HIV-1); test: cell-based or functional assay
[39] = biological target: HIV-1 Env of isolate MGRM-C-027 (subtype C), on pseudovirus (HIV-1); test: cell-based or functional assay
[40] = biological target: HIV-1 Env of isolate MGRM-D-024 (HIV-1); test: cell-based or functional assay
[41] = biological target: HIV-1 envelope glycoprotein (Env) of isolate MGRM-Chronic-B-012, on pseudovirus (HIV-1); test: cell-based or functional assay

PGT-141 (4964_G22; 4993_K13) (antibody), sequence (VH): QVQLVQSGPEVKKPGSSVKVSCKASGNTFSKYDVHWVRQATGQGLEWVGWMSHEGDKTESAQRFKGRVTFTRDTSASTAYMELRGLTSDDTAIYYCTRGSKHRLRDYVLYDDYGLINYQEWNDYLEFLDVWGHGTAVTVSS
PGT-141 (4964_G22; 4993_K13) (antibody), sequence (VL): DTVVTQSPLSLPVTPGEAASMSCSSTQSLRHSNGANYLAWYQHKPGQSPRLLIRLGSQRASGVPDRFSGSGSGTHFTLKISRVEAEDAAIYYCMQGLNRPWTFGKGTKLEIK

b12 (antibody)
IC90 (pseudovirus neutralization) [1]: > 50 mg/L

PGT-141 (4964_G22; 4993_K13) (antibody)
IC50, pseudovirus neutralization [2]: 0.008 mg/L
IC50, pseudovirus neutralization [3]: 3.27 mg/L
IC50 (ug/ml), pseudovirus neutralization [4]: > 10 µg/mL
IC50, pseudovirus neutralization [5]: 4.02 mg/L
IC50 (ug/ml), pseudovirus neutralization [6]: 0.856 µg/mL
IC50 (ug/ml), pseudovirus neutralization [7]: > 10 µg/mL
IC50 (ug/ml), pseudovirus neutralization [8]: > 10 µg/mL
IC50 (ug/ml), pseudovirus neutralization [9]: 0.822 µg/mL
IC50, pseudovirus neutralization [10]: 0.381 mg/L
IC50 (ug/ml), pseudovirus neutralization [11]: > 10 µg/mL

5145_B14 (PGT-127) (antibody)
neutralization IC50 [12]: 0.021 mg/L
IC50 (µg/mL) neutralization [13]: 6.95 µg/mL

1495_C14 (PGC14) (antibody)
IC50, pseudovirus neutralization, 1 hour Virus/Ab Incubation [14]: > 50 mg/L
IC50, pseudovirus neutralization, 18 hour Virus/Ab Incubation [14]: 0.146 mg/L
IC50, pseudovirus neutralization, 1 hour Virus/Ab Incubation [15]: 1.17 mg/L
IC50, pseudovirus neutralization, 18 hour Virus/Ab Incubation [15]: 0.244 mg/L

PGT-121 (antibody)
EC50 [16]: 0.2 mg/L
EC50 [17]: 0.2 mg/L
IC50 neutralization [18]: 0.316 mg/L
IC50 (µg/mL), pseudovirus neutralization [19]: > 50 µg/mL
Fold IC50 increase relative to wild-type [20]: 0.6 fold
Fold IC50 increase relative to wild-type [21]: 0.6 fold
Fold IC50 increase relative to wild-type [22]: 0.9 fold
IC50 (µg/mL), pseudovirus neutralization [23]: > 50 µg/mL
Fold IC50 increase relative to wild-type [24]: 0.5 fold
IC50 neutralization [25]: 0.0423 mg/L
Fold IC50 increase relative to wild-type [26]: 0.8 fold
IC50 (µg/mL), pseudovirus neutralization [27]: > 50 µg/mL
Fold IC50 increase relative to wild-type [28]: 1.1 fold
Fold IC50 increase relative to wild-type [29]: 1.7 fold
Fold IC50 increase relative to wild-type [30]: 1.3 fold
IC50 (µg/mL), pseudovirus neutralization [31]: 0.006 µg/mL
Fold IC50 increase relative to wild-type [32]: 0.7 fold
Fold IC50 increase relative to wild-type [33]: 0.4 fold
IC50 neutralization [34]: 1.19 mg/L

5147_N06 (PGT-130) (antibody)
IC50 (ug/ml), neutralizing activity [35]: > 10 µg/mL

4838_L06 (PGT-121) (antibody)
neutralization IC80 [36]: 8.85 mg/L
neutralization IC80 [37]: 0.0806 mg/L
neutralization IC90 [37]: 0.151 mg/L
neutralization IC95 [37]: 0.267 mg/L
neutralization IC95 [38]: 0.0687 mg/L

1496_C09 (PG9) (TCN-109) (antibody)
IC50, pseudovirus neutralization, 1 hour Virus/Ab Incubation [14]: 0.144 mg/L
IC50, pseudovirus neutralization, 18 hour Virus/Ab Incubation [14]: 0.0619 mg/L
IC50 (µg/mL), pseudovirus neutralization [39]: 5.36 µg/mL
IC50 (µg/mL), pseudovirus neutralization [19]: 0.069 µg/mL
IC50 (µg/mL), pseudovirus neutralization [40]: 0.038 µg/mL
IC50 neutralization [25]: 0.214 mg/L
IC50, pseudovirus neutralization [41]: 0.2 mg/L
IC50 [27]: 0.75 mg/L
IC50 [31]: 0.023 mg/L
IC50 neutralization [34]: 0.121 mg/L

4877_D15 (PGT-122) (antibody)
neutralization IC50 [12]: 0.028 mg/L
IC50 (ug/ml), neutralizing activity [35]: 0.867 µg/mL
IC50 (µg/mL) neutralization [13]: 0.016 µg/mL
